Assay results from article PMC10470551 (mBio, 2023).

Experiments:
CsTAL = target: T1, CsTAL (Clostridium scatologenes, UniProt A0A0E3M5J5); experiment: coupled assays (PfHBDH or CaHAD), NADH at […] nm; format: biochemical; settings: 50 mM Tris-HCl pH 7.5, room temperature
T1 construct: gene CSCA_1088; recombinant, pET-28a(+), N-terminal His6 tag, E. coli BL21(DE3), Ni-NTA
T1 sequence (A0A0E3M5J5 1-281): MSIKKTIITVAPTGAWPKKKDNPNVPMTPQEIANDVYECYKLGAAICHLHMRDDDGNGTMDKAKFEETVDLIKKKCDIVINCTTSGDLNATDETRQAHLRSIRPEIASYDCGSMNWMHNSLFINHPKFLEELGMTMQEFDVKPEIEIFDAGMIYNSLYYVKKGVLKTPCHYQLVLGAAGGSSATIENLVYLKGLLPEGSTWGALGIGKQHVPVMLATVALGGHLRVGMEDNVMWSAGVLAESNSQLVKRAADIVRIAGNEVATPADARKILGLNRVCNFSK

purified protein [1] = substrate: NC(=O)C1=CN([C@@H]2O[C@H](COP(=O)(O)OP(=O)(O)OC[C@H]3O[C@@H](n4cnc5c(N)ncnc54)[C@H](OP(=O)(O)O)[C@@H]3O)[C@@H](O)[C@H]2O)C=CC1; experiment: purified protein; format: biochemical, Clostridium scatologenes; settings: 50 mM Tris-HCl pH 7.5, room temperature
purified protein [2] = substrate: Oc1cc(O)cc(O)c1; experiment: purified protein; settings: co-substrate NADPH, 50 mM Tris-HCl pH 7.5, room temperature
purified protein [3] = substrate: O=C1CC(=O)CC(O)C1; experiment: purified protein; format: biochemical, Clostridium scatologenes; settings: 2 mM Mn2+, 50 mM Tris-HCl pH 7.5, room temperature
purified protein [4] = substrate: CC(=O)CC(=O)CC(=O)O; experiment: purified protein; format: biochemical, Clostridium scatologenes; settings: 1.0 mM NADPH, 50 mM Tris-HCl pH 7.5, room temperature
purified protein [5] = substrate: CC(=O)CC(=O)O; experiment: purified protein; format: biochemical, Clostridium scatologenes; settings: 1.0 mM NADPH, 50 mM Tris-HCl pH 7.5, room temperature
purified protein [6] = substrate: NC(=O)C1=CN([C@@H]2O[C@H](COP(=O)(O)OP(=O)(O)OC[C@H]3O[C@@H](n4cnc5c(N)ncnc54)[C@H](O)[C@@H]3O)[C@@H](O)[C@H]2O)C=CC1; experiment: purified protein; format: biochemical, Clostridium scatologenes; settings: 2.0 mM triacetate (saturating), 50 mM Tris-HCl pH 7.5, room temperature

**Q.** For `CC(=O)SCCNC(=O)CCNC(=O)[C@H](O)C(C)(C)COP(=O)(O)OP(=O)(O)OC[C@H]1O[C@@H](n2cnc3c(N)ncnc32)[C@H](O)[C@@H]1OP(=O)(O)O` [acetyl-CoA], which “coupled assays (PfHBDH or CaHAD), NADH at 340 nm” value (CsTAL; co-substrate triacetate) is on record?
**A.** Incubation of CsTAL with triacetate and acetyl-CoA resulted in the formation of acetoacetate and acetoacetyl-CoA

**Q.** `CC(=O)CC(=O)CC(=O)O` [TAA, 3,5-dioxohexanoate] was tested. Which “coupled assays (PfHBDH or CaHAD), NADH at 340 nm” value (CsTAL; co-substrate acetyl-CoA) did it give?
**A.** Incubation of CsTAL with triacetate and acetyl-CoA resulted in the formation of acetoacetate and acetoacetyl-CoA

B1: CsPGR (Clostridium scatologenes) (protein)
chain: MVDKKLINNLFDVKGKVALLTGATGALGKAVAFGYGQAGMKVFITGRSDDKCKALCNELKVDGIECGYSIGDPAIEADVIKIVDDCVAKFGEINVLLTAAGYNHPQPIVEQDLTEWQKIMNSDVQGTWLFCKYVGQKMIDQGKGGKVILVSSARSKMGMAGYTGYCTAKAGIDLMAQSLACEWTAKYGINVNTINPTVFRSDLTEWMFDPESAVYKNFLRRLPIGRLGEPEDFVGPCIFLASSASDFMTGANVATEGGYWAN
notes: recombinant, pET-28a(+), N-terminal His6 tag, E. coli BL21(DE3), Ni-NTA
**Q.** What does the source list for B1?
**A.** Km (purified protein [1]; co-substrate phloroglucinol): 210 µM; kcat (purified protein [1]; co-substrate phloroglucinol): 22.4 to 25.3 s⁻¹; Km (purified protein [2]): 300 µM; kcat (purified protein [2]): 22.4 to 25.3 s⁻¹

B2: CsDPGC (Clostridium scatologenes) (protein)
chain: MGKKVYVDLTHPFSADIPRWPYFVKPVIDSMHSLAKGGVLTQRIDCVQHTGTHCDAPRHVMETEFNGKRARYTHEMPVDAYMGDAVCLEIKAGRWELITAAHLEDACKRANIKPEELEGMVVCLNTGMHRKFDDSKEYYHYSCGTGVEAGKWFVKYKVKCVAMDMQALDHPLHTAMGNNGATRLNLLGASGKPITEEYKEQFGEEAYAEFDKDEYIRIHGKEAYDAKFGDLEEIGCWGTWEPCHKEMLGHGIVGVENLGGDLDKVSGKRFRFLCLPIRWYMGDGSMVRCVAEIDEDNVNKDVADRVYTYGGF
notes: recombinant, pET-28a(+), N-terminal His6 tag, E. coli BL21(DE3), Ni-NTA; mostly apo as purified, Mn2+ added
**Q.** With B2 as the molecule, how does the Km (purified protein [3]) read?
**A.** 190 ± 40 µM

**Q.** What about the kcat (purified protein [3]) of the same molecule?
**A.** 1.04 ± 0.10 s⁻¹

B3: CsTfD (Clostridium scatologenes) (protein)
chain: MGSIIKNITVFGPGMMGSGIAQVFAGCKDSHVTVFIREKFEYECIDKIKGNLQVMKEKGIVTDADIAELFSRITLTEDMKAATKDADFIIECIPENMELKQNLFKNLEDLCREDTIFATNTSVMSITEISEKSKLKTRIVGTHFWNPPYLIPLVEVVKSDYTSEEVMNKTMELLKTVKKHPIRVNKDVPGFVANRLQHALWREAISIVENGIADAKTVDEAVKYSFGLRLPHLGPIENADMVGTDLTLSIHDYILKHLDKSIEAAPIVRKMVEAGELGFKSGKGFQEWTPEQAKASNESLREYLLKVLYGK
notes: recombinant, codon-optimized synthetic gene, pET-28a(+), N-terminal His6 tag, E. coli BL21(DE3), Ni-NTA
**Q.** B3 was tested. Which Km (purified protein [1]; 2.0 mM triacetate (saturating)) did it give?
**A.** 1700 µM

**Q.** What about the Km (purified protein [4]) of the same molecule?
**A.** 550 µM

**Q.** And the Km (purified protein [5])?
**A.** 3690 µM

**Q.** And the Km (purified protein [6])?
**A.** 130 µM
